The series deals with the molecule itself. Nature of the series: negative-stain electron microscopy.

B1: AtPORB Y177F_H319A double mutant (enzyme, A. thaliana)
chain: QTAATSSPTVTKSVDGKKTLRKGNVVVTGASSGLGLATAKALAETGKWNVIMACRDFLKAERAAKSVGMPKDSYTVMHLDLASLDSVRQFVDNFRRTETPLDVLVCNAAVFFPTAKEPTYSAEGFELSVATNHLGHFLLARLLLDDLKKSDYPSKRLIIVGSITGNTNTLAGNVPPKANLGDLRGLAGGLNGLNSSAMIDGGDFDGAKAYKDSKVCNMLTMQEFHRRFHEETGVTFASLYPGCIASTGLFREAIPLFRALFPPFQKYITKGYVSETESGKRLAQVVSDPSLTKSGVYWSWNNASASFENQLSEEASDVEKARKVWEISEKLVGLA
As for B1, the binding result was “binds”.

Values taken from paper PMC11110527 (Chemical Science, 2024).
